Molecular target: NBS1 (UniProt O60934)
Assay: anti-Flag co-IP
Conditions: reference: wild-type Syk-Flag; sites T504

binding against the reference: lost
Substance: Syk (from UniProt P43405) Syk T504A

From paper PMC10275042
